# Article PMC3102279
# B1: Mps1 (Homo sapiens) (protein)
# chain: MESEDLSGRELTIDSIMNKVRDIKNKFKNEDLTDELSLNKISADTTDNSGTVNQIMMMANNPEDWLSLLLKLEKNSVPLSDALLNKLIGRYSQAIEALPPDKYGQNESFARIQVRFAELKAIQEPDDARDYFQMARANCKKFAFVHISFAQFELSQGNVKKSKQLLQKAVERGAVPLEMLEIALRNLNLQKKQLLSEEEKKNLSASTVLTAQESFSGSLGHLQNRNNSCDSRGQTTKARFLYGENMPPQDAEIGYRNSLRQTNKTKQSCPFGRVPVNLLNSPDCDVKTDDSVVPCFMKRQTSRSECRDLVVPGSKPSGNDSCELRNLKSVQNSHFKEPLVSDEKSSELIITDSITLKNKTESSLLAKLEETKEYQEPEVPESNQKQWQSKRKSECINQNPAASSNHWQIPELARKVNTEQKHTTFEQPVFSVSKQSPPISTSKWFDPKSICKTPSSNTLDDYMSCFRTPVVKNDFPPACQLSTPYGQPACFQQQQHQILATPLQNLQVLASSSANECISVKGRIYSILKQIGSGGSSKVFQVLNEKKQIYAIKYVNLEEADNQTLDSYRNEIAYLNKLQQHSDKIIRLYDYEITDQYIYMVMECGNIDLNSWLKKKKSIDPWERKSYWKNMLEAVHTIHQHGIVHSDLKPANFLIVDGMLKLIDFGIANQMQPDTTSVVKDSQVGTVNYMPPEAIKDMSSSRENGKSKSKISPKSDVWSLGCILYYMTYGKTPFQQIINQISKLHAIIDPNHEIEFPDIPEKDLQDVLKCCLKRDPKQRISIPELLAHPYVQIQTHPVNQMAKGTTEEMKYVLGQLVGLNSPNSILKAAKTLYEHYSGGESHNSSSSKTFEKKRGKK
# B2: Aurora B (Homo sapiens) (protein)
# chain: SNVQPTAAPGQKVMENSSGTPDILTRHFTIDDFEIGRPLGKGKFGNVYLAREKKSHFIVALKVLFKSQIEKEGVEHQLRREIEIQAHLHHPNILRLYNYFYDRRRIYLILEYAPRGELYKELQKSCTFDEQRTATIMEELADALMYCHGKKVIHRDIKPENLLLGLKGELKIADFGWSVHAPSLRRKTMCGTLDYLPPEMIEGRMHNEKVDLWCIGVLCYELLVGNPPFESASHNETYRRIVKVDLKFPASVPMGAQDLISKLLRHNPSERLPLAQVSAHPWVRANSRRVLPPSALQSVA
# Legend:
# purified protein [1] = substrate: Nc1ncnc2c1ncn2[C@@H]1O[C@H](COP(=O)(O)OP(=O)(O)OP(=O)(O)O)[C@@H](O)[C@H]1O; test: purified protein; type: biochemical, Homo sapiens; conditions: Mg2+
# purified protein [2] = substrate: Nc1ncnc2c1ncn2[C@@H]1O[C@H](COP(=O)(O)OP(=O)(O)OP(=O)(O)O)[C@@H](O)[C@H]1O; test: purified protein; conditions: Mg2+
Protein,Km (purified protein [1]),Km (purified protein [2])
B1,4.9 µM,–
B2,–,16.5 µM
